Experimental data taken from patent US20040005643A1.

Assays:
[1] = target: human tenascin-C (human) (UniProt P24821); assay: BIAcore
[2] = target: human tenascin-C (human) (UniProt P24821); assay: ELISA, biotinylated antibody, 15-20 moles biotin/antibody
[3] = target: human tenascin-C (human) (UniProt P24821); assay: immunoreactivity of the batch used for biodistribution, 7-10 biotins/mole
[4] = target: human tenascin-C (human) (UniProt P24821); assay: ELISA, biotinylated antibody, 2-3 moles biotin/antibody
[5] = target: human tenascin-C (human) (UniProt P24821); assay: ELISA, biotinylated antibody, 7-10 moles biotin/antibody
[6] = target: human tenascin-C (human) (UniProt P24821); assay: ELISA, biotinylated antibody, 3.5-5 moles biotin/antibody

Chain of human tenascin-C (human) (P24821 23-2201 limits assumed): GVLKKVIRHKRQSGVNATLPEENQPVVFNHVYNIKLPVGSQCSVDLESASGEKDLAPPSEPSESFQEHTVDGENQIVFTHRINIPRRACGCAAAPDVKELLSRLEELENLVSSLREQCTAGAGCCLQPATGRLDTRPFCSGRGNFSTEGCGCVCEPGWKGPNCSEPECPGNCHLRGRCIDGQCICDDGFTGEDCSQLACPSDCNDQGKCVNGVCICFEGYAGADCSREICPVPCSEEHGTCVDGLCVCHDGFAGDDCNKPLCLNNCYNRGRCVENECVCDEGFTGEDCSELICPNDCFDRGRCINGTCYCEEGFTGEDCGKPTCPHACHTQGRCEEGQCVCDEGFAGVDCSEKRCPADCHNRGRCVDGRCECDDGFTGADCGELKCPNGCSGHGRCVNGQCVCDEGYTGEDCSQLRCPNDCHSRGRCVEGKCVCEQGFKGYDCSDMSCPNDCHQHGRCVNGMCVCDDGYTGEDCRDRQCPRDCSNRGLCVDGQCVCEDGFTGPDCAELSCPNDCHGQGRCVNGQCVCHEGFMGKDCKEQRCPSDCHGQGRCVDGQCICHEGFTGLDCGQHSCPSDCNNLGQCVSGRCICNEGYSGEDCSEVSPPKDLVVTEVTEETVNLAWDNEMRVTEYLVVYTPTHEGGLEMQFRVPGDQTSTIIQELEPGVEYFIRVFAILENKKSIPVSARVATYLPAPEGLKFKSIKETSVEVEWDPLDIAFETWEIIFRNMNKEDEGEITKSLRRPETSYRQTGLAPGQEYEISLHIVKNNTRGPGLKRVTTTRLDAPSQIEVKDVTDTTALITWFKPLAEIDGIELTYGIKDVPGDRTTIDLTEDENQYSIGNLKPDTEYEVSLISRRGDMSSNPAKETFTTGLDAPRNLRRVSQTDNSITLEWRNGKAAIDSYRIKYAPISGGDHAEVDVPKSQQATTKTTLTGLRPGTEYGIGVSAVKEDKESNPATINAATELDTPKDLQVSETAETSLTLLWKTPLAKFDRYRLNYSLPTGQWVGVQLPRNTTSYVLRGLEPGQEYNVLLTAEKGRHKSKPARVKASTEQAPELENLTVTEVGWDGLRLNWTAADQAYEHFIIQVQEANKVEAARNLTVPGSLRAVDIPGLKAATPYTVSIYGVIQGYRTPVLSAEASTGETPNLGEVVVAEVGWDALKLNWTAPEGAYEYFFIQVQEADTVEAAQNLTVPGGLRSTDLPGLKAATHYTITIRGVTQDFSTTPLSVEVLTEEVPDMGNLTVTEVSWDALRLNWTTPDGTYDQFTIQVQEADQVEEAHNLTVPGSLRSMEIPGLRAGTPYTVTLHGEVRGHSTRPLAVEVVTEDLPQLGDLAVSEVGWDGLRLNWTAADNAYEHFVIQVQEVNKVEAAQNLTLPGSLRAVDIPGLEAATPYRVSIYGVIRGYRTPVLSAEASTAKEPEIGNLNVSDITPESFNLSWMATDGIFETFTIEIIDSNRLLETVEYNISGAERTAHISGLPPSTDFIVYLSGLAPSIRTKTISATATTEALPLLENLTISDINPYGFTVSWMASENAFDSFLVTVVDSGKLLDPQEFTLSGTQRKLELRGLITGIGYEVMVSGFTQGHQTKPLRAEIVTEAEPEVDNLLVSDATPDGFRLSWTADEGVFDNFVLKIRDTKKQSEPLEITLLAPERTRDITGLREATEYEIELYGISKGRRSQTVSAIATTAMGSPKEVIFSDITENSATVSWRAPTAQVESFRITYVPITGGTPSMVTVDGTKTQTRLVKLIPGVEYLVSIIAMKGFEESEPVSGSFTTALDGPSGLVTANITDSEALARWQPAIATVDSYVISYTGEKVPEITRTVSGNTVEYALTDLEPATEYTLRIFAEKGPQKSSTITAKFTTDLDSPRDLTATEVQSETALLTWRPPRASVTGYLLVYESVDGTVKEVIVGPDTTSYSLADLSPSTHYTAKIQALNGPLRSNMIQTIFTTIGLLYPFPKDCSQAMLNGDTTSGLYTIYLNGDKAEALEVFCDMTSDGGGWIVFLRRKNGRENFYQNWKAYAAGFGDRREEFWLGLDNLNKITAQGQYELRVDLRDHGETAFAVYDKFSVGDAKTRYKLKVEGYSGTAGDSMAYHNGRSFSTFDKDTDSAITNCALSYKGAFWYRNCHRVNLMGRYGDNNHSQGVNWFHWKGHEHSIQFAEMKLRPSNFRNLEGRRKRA

Substance: BC4 anti-human tenascin monoclonal antibody
- Kd [1]: 4.9 nM

Substance: biotinylated BC4 (antibody)
- % of Immunoreactivity [2]: 12.6%
- immunoreactivity [3]: 80%
- % of Immunoreactivity [4]: 82.4%
- % of Immunoreactivity [5]: 67.2%
- % of Immunoreactivity [6]: 74.4%
